Assay results published in publication PMC5464003.

Tests used:
[1] = target: GST-F28F8.5 (C. elegans) (UniProt H9G301); assay: pull-down; GST-F28F8.5 or GST adsorbed in equal amounts on glutathione-agarose, incubated with His6-MDT-30-FLAG purified on a nickel column; Western blot with anti-FLAG M2, densitometry (ImageJ)
[2] = target: GST-F28F8.5 (C. elegans) (UniProt H9G301); assay: pull-down; GST-F28F8.5 or GST adsorbed in equal amounts on glutathione-agarose, incubated with 35S-MDT-6 from rabbit reticulocyte lysate; bound fraction resolved by PAGE, autoradiography, excised bands counted by scintillation

fold enrichment over GST alone [1] [fold]	fold enrichment over GST alone [2] [fold]	Binder
2.5	–	His6-MDT-30-FLAG (natural protein) MNPNQPPNYPPGNPNQPPPFPPTPYYPMYQAGMPMPYIPQSPQYPQPGPPGGPPPFMGIQIKQEPMWSQENRYGMQAGPSGMPGMPPSSHPYGYPPMHGMPPGMPQGMPPMMDPNMPDFSSPPMHHPTTSLLAQHLSSAPLPPAPPQQQSHLSQLLQQPTTYSTATNPHAAPTQTIARRPDNEARNAQLQEQELAARQQQQQEYMLQQHQQQQQNRAGQLQAEQAFANPPTVSIPPQTGHPPQQTSASSQQRAQETMAQQTEPQSHIRESPQKETNLEKYSTGELCLYGRELVNDLNVKTSYLSTILKKVMERKPLNQGENPNDLADQCKNALQRMSDIRQIIEKRREPTWKRMTGEDYIELMLDDSELKKPMDEERQKRRAELEQRFAIVISKTPPVEGHIWYQGKWISEELHKKYMQFEANKEIVKNLAAELKALAWKIDVTSPGHLKKVDQTKISKKKTDDQV
–	7.7	35S-Methionine-MDT-6 (natural protein, 35S-methionine label) MMPRMGPPAAARQDNPLHVSFRNPQWPPNFINKDNVLDYFCNQANAFYEMNSCNQQIRMQNIVNRTVEECLRTMPGIQYVLWYSQPPLFIICKQRRNNVTNVSPIAYYYVINGSVHQAPDMYSLVQSRLLGALEPLRNAFGEVTNYSRYNTAKGYYWEFKNKPNVKKREEEKKEDEEEKLEDRSTNFQKTRTMMLLNQLFSEMPAEDALEREEKEEVEEEEEETLKTEEPTTSTDEPKFAEPTARTTSKQ
